# Reference: IntAct's records for PubMed 20608975
# What was measured:
# mmp14_human MMP14 = mmp14_human MMP14 (UniProt P50281)
# gors2_rat Gorasp2 [1] = target: gors2_rat Gorasp2 (UniProt Q9R064)
# gors2_rat Gorasp2 [2] = target: gors2_rat Gorasp2 (UniProt Q9R064); remark: listed apart in the source
# gors2_rat Gorasp2 [3] = target: gors2_rat Gorasp2 (UniProt Q9R064); remark: listed apart in the source
# gors2_rat Gorasp2 [4] = target: gors2_rat Gorasp2 (UniProt Q9R064); remark: listed apart in the source
# gors2_rat Gorasp2 [5] = target: gors2_rat Gorasp2 (UniProt Q9R064); remark: listed apart in the source
# gors2_rat Gorasp2 [6] = target: gors2_rat Gorasp2 (UniProt Q9R064); remark: listed apart in the source
substance,measurement,setting,value
Golgi reassembly-stacking protein 2 (Rattus norvegicus (Rat)) (from UniProt Q9R064) G2A,effect of a mutation on the interaction,mmp14_human MMP14,disrupting interaction
Matrix metalloproteinase-14 (Homo sapiens) (from UniProt P50281) C574A,effect of a mutation on the interaction,gors2_rat Gorasp2 [1],decreasing interaction
Matrix metalloproteinase-14 (Homo sapiens) (from UniProt P50281) G566A,effect of a mutation on the interaction,gors2_rat Gorasp2 [2],decreasing interaction
Matrix metalloproteinase-14 (Homo sapiens) (from UniProt P50281) H565A,effect of a mutation on the interaction,gors2_rat Gorasp2 [2],decreasing interaction
Matrix metalloproteinase-14 (Homo sapiens) (from UniProt P50281) L571A,effect of a mutation on the interaction,gors2_rat Gorasp2 [3],disrupting interaction
Matrix metalloproteinase-14 (Homo sapiens) (from UniProt P50281) L572A,effect of a mutation on the interaction,gors2_rat Gorasp2 [3],disrupting interaction
Matrix metalloproteinase-14 (Homo sapiens) (from UniProt P50281) L578A,effect of a mutation on the interaction,gors2_rat Gorasp2 [4],decreasing interaction
Matrix metalloproteinase-14 (Homo sapiens) (from UniProt P50281) L579A,effect of a mutation on the interaction,gors2_rat Gorasp2 [4],decreasing interaction
Matrix metalloproteinase-14 (Homo sapiens) (from UniProt P50281) P568A,effect of a mutation on the interaction,gors2_rat Gorasp2 [5],decreasing interaction
Matrix metalloproteinase-14 (Homo sapiens) (from UniProt P50281) Q575A,effect of a mutation on the interaction,gors2_rat Gorasp2 [1],decreasing interaction
Matrix metalloproteinase-14 (Homo sapiens) (from UniProt P50281) R569A,effect of a mutation on the interaction,gors2_rat Gorasp2 [5],decreasing interaction
Matrix metalloproteinase-14 (Homo sapiens) (from UniProt P50281) R570A,effect of a mutation on the interaction,gors2_rat Gorasp2 [5],decreasing interaction
Matrix metalloproteinase-14 (Homo sapiens) (from UniProt P50281) R576A,effect of a mutation on the interaction,gors2_rat Gorasp2 [1],decreasing interaction
Matrix metalloproteinase-14 (Homo sapiens) (from UniProt P50281) S577A,effect of a mutation on the interaction,gors2_rat Gorasp2 [4],decreasing interaction
Matrix metalloproteinase-14 (Homo sapiens) (from UniProt P50281) T567A,effect of a mutation on the interaction,gors2_rat Gorasp2 [2],decreasing interaction
Matrix metalloproteinase-14 (Homo sapiens) (from UniProt P50281) Y573A,effect of a mutation on the interaction,gors2_rat Gorasp2 [3],disrupting interaction
"Matrix metalloproteinase-15 (Homo sapiens), P51511 L658A",effect of a mutation on the interaction,gors2_rat Gorasp2 [6],decreasing interaction
"Matrix metalloproteinase-15 (Homo sapiens), P51511 L659A",effect of a mutation on the interaction,gors2_rat Gorasp2 [6],decreasing interaction
"Matrix metalloproteinase-15 (Homo sapiens), P51511 Y660A",effect of a mutation on the interaction,gors2_rat Gorasp2 [6],decreasing interaction
